Experimental data as given in article PMC6377682 (2019).
Residue numbers refer to the chain shown, from its start. In names and notes the source's numbering stands.

B1: human ASPP2^920-1120 (domain or fragment)
chain: MRVKFNPLALLLDSSLEGEFDLVQRIIYEVDDPSLPNDEGITALHNAVCAGHTEIVKFLVQFGVNVNAADSDGWTPLHCAASCNNVQVCKFLVESGAAVFAMTYSDMQTAADKCEEMEEGYTQCSQFLYGVQEKMGIMNKGVIYALWDYEPQNDDELPMKEGDCMTIIHREDEDEIEWWWARLNDKEGYVPRNLLGLYPRI
B2: PP1β^297-327 chimera with the PP1α C-terminal residues NSAKAKK (peptide)
chain: PSEKKAKYQYGGLNSGRPVTPPRNSAKAKK
modifications: synthetic peptide, termini not stated; the end of the PPII motif (RPVTPPR) is taken as Arg319 by alignment with PP1α 317-323
B3: PP1γ2^297-324 chimera with the PP1α C-terminal residues NSAKAKK (peptide)
chain: KPAEKKKPNATRPVTPPRNSAKAKK
modifications: synthetic peptide, termini not stated; γ2 is identical to γ1 through the PPII motif (end taken as Arg314 by alignment), so the canonical entry is used
B4: PP1γ1^298-323 chimera with the PP1α C-terminal residues NSAKAKK (peptide)
chain: PAEKKKPNATRPVTPPRNSAKAKK
modifications: synthetic peptide, termini not stated; the end of the PPII motif (RPVTPPR) is taken as Arg314 by alignment with PP1α 317-323
B5: human iASPP^621-828 (domain or fragment)
chain: RRARLNPLVLLLDAALTGELEVVQQAVKEMNDPSQPNEEGITALHNAICGANYSIVDFLITAGANVNSPDSHGWTPLHCAASCNDTVICMALVQHGAAIFATTLSDGATAFEKCDPYREGYADCATYLADVEQSMGLMNSGAVYALWDYSAEFGDELSFREGESVTVLRRDGPEETDWWWAALHGQEGYVPRNYFGLFPRVKPQRSKV
B6: human PP1β^6-327 (enzyme)
chain: LNVDSLITRLLEVRGCRPGKIVQMTEAEVRGLCIKSREIFLSQPILLELEAPLKICGDIHGQYTDLLRLFEYGGFPPEANYLFLGDYVDRGKQSLETICLLLAYKIKYPENFFLLRGNHECASINRIYGFYDECKRRFNIKLWKTFTDCFNCLPIAAIVDEKIFCCHGGLSPDLQSMEQIRRIMRPTDVPDTGLLCDLLWSDPDKDVQGWGENDRGVSFTFGADVVSKFLNRHDLDLICRAHQVVEDGYEFFAKRQLVTLFSAPNYCGEFDNAGGMMSVDETLMCSFQILKPSEKKAKYQYGGLNSGRPVTPPRTANPPKKR
B7: human ASPP1^882-1090 (domain or fragment)
chain: LRVRFNPLALLLDASLEGEFDLVQRIIYEVEDPSKPNDEGITPLHNAVCAGHHHIVKFLLDFGVNVNAADSDGWTPLHCAASCNSVHLCKQLVESGAAIFASTISDIETAADKCEEMEEGYIQCSQFLYGVQEKLGVMNKGVAYALWDYEAQNSDELSFHEGDALTILRRKDESETEWWWARLGDREGYVPKNLLGLYPRIKPRQRTLA

Tests used:
human PP1γ1^7-323 = human PP1γ1^7-323 (human, UniProt P36873 7-323); test: BLI
human PP1β^6-327 = molecular target: B6; test: BLI
human ASPP2^920-1120 = molecular target: B1; test: ITC
ASPP2^D1091G/E1092P = molecular target: T1, ASPP2^D1091G/E1092P (human, UniProt Q13625 920-1120, D1091G | E1092P); test: ITC
T1 sequence: B1 chain with D172G, E173P

human PP1α^7-330 = human PP1α^7-330 (human, UniProt P62136 7-330); test: BLI
ASPP2^E1090K/D1093S = molecular target: T2, ASPP2^E1090K/D1093S (human, UniProt Q13625 920-1120, E1090K | D1093S); test: BLI
T2 sequence: B1 chain with E171K, D174S

ASPP1^K1052E/S1055D = molecular target: T3, ASPP1^K1052E/S1055D (human, UniProt Q96KQ4 882-1090, K1052E | S1055D); test: BLI
T3 sequence: B7 chain with K171E, S174D

ASPP2^D1093S = molecular target: T4, ASPP2^D1093S (human, UniProt Q13625 920-1120, D1093S); test: BLI
T4 sequence: B1 chain with D174S

A Kd (human PP1γ1^7-323) of 195 nM and a Kd (human PP1β^6-327) of 177 nM were found for B1 in this work.

A Kd (human ASPP2^920-1120) of 200 nM was found for B2 in this work.

A Kd (human ASPP2^920-1120) of 342 nM was found for KNKGKYGQFSGLNPGGRPITPPRNSAKAAK [PP1α^301-330 K329A peptide] in this work.

A Kd (ASPP2^D1091G/E1092P) of 172 nM was found for KNKGKYGQFSGLNPGGRPITPPRNSAKAKK [PP1α^301-330 C-tail peptide] in this work.

A Kd (human ASPP2^920-1120) of 326 nM was found for B3 in this work.

A Kd (human ASPP2^920-1120) of 326 nM was found for B4 in this work.

A Kd (human ASPP2^920-1120) of 690 nM was found for PAEKKKPNATRPVTPPRGMITKQAKK [PP1γ1^298-323 C-tail peptide] in this work.

A Kd (human ASPP2^920-1120) of 520 nM was found for KNKGKYGQFSGLNPGGRPITPPRNSAAAKK [PP1α^301-330 K327A peptide] in this work.

A Kd (human PP1α^7-330) of 2.4 nM and a Kd (human PP1γ1^7-323) of 4.9 nM were found for B5 in this work.

A Kd (human ASPP2^920-1120) of 965 nM was found for PSEKKAKYQYGGLNSGRPVTPPRTANPPKKR [PP1β^297-327 C-tail peptide] in this work.

A Kd (ASPP2^E1090K/D1093S) of 178 nM, a Kd (ASPP1^K1052E/S1055D) of 84.4 nM and a Kd (ASPP2^D1093S) of 136 nM were found for B6 in this work.

A Kd (human ASPP2^920-1120) of 326 nM was found for KNKGKYGQFSGLNPGGRPITPPRNSAKAKA [PP1α^301-330 K330A peptide] in this work.

A Kd (human PP1α^7-330) of 59 nM, a Kd (human PP1γ1^7-323) of 60.6 nM and a Kd (human PP1β^6-327) of 66.5 nM were found for B7 in this work.

A Kd (human ASPP2^920-1120) of 2150 nM was found for KPAEKKKPNATRPVTPPRVASGLNPSIQ [PP1γ2^297-324 C-tail peptide] in this work.
